Values of other authors, collected in PMC4893024.

Target: Cys39 (UniProt position 39, TSPYECGFDPM)
Test: not stated (the cited study [29] is described as SH-reagent sensitivity/labelling of bovine heart SMP with N-ethylmaleimide and N-fluorescein maleimide)
Conditions: Deactive (D) form of complex I, with Cys-39 exposed

In the case of “NADH-ubiquinone oxidoreductase chain 3 (ND3 subunit of mitochondrial complex I) (Bos taurus)”, the pKa is given as 10.2.
